Measured values from PMC12561426, “Dissecting the Interplay Between NRF2 and BACH1 at CsMBEs” (Antioxidants, 2025).

Assays:
[1] = target: T1, sMafG^YbbR (fluorescein-labelled sMafG^DBD-YbbR released by TEV from NRF2-TEV-sMafGχ^YbbR or … (human, UniProt O15525 1-162, fluorescein (CoA-fluorescein conjugate put on the YbbR tag by Sfp))); experiment: native gel or EMSA; competition: fluorescein-labelled chimera (150 nM) assembled on Cy5-labelled dsDNA (3 nM) with TEV and 3C 4 h at 25 C, then the DBD competitor (150 nM-1.5 uM) added, overnight at 4 C; 10% non-denaturing gel, Cy5 and fluorescein scans; conditions: both partners purified
T1 construct: small Maf protein G (sMafG), human, residues 1-162, the C-terminal half of the chimeric constructs; source: cut from the chimera by TEV in the assay; not shown: linker with 6xHis and TEV site, N-terminal, cleaved

[2] = target: the molecule itself; experiment: SEC-MALS; Superdex 75 increase 10/300, 50 mM HEPES pH 7.9, 2 mM TCEP, 500 mM NaCl, 1-2 mg protein injected; without DNA
[3] = target: T2, sMafG^DBD released by TEV from NRF2-sMafGχ or BACH1-sMafGχ (human, UniProt O15525 1-162); experiment: native gel or EMSA; chimeric constructs (0-300 nM) titrated on fluorescein-labelled CsMBE dsDNA (3 nM) with TEV and 3C proteases 4 h at 25 C; 150 mM NaCl, 50 mM HEPES pH 7.9, 10% glycerol, 1 mM TCEP, 1 mM DTT, 2 mM MgCl2; 6% non-denaturing gel; heterodimer on DNA; conditions: both partners purified
T2 construct: small Maf protein G (sMafG), human, residues 1-162, the C-terminal half of the chimeric constructs; also called sMafG of NRF2/sMafG and BACH1/sMafG; sMafG^DBDχ; source: E. coli One Shot BL21 Star (DE3), purified as the chimera (HisTrap, heparin, SEC); cut from the chimera by 3C and TEV in the assay; not shown: linker with 6xHis and TEV site, N-terminal, cleaved

Binder | binding result [1] | binding result [3] | stoichiometry N [2]
BACH1^DBD (domain or fragment, The His-tag is called cleavable; TEV and 3C proteases were present in the EMSA samples; also called BACH1^DBD-3C-6xHis; source: E. coli One Shot BL21 Star (DE3), purified (HisTrap, heparin, SEC)) not shown | binds | – | 2
NRF2^DBD with the uncleaved 6xHis linker (released by TEV from NRF2-TEV-sMafGχ^YbbR) (domain or fragment, human, UniProt Q16236 451-567, looked up, The linker stays on this chain and gives the supershift; also called NRF2^DBD-6xHis-TEV; NRF2 of NRF2/sMafG^YbbR; source: cut from the chimera by TEV in the assay; not shown: linker with 6xHis (3C site removed, up to the TEV site), C-terminal, kept) EAHLTRDELRAKALHIPFPVEKIINLPVVDFNEMMSKEQFNEAQLALIRDIRRRGKNKVAAQNCRKRKLENIVELEQDLDHLKDEKEKLLKEKGENDKSLHLLKKQLSTLYLEVFSM | binds | – | –
NRF2^DBD (domain or fragment, human, UniProt Q16236 451-567, looked up, The His-tag is called cleavable; TEV and 3C proteases were present in the EMSA samples; also called NRF2^DBD-3C-6xHis; source: E. coli One Shot BL21 Star (DE3), purified (His-tag purification, heparin)) EAHLTRDELRAKALHIPFPVEKIINLPVVDFNEMMSKEQFNEAQLALIRDIRRRGKNKVAAQNCRKRKLENIVELEQDLDHLKDEKEKLLKEKGENDKSLHLLKKQLSTLYLEVFSM | binds | – | –

The next lines start with results.

binding result [1] | binding result [3] | Binder | stoichiometry N [2]
– | binds | NRF2^DBD released by 3C from NRF2-sMafGχ (domain or fragment, human, UniProt Q16236 451-567, looked up, also called NRF2 of NRF2/sMafG; source: E. coli One Shot BL21 Star (DE3), purified as the chimera (HisTrap, heparin, SEC); cut from the chimera by 3C and TEV in the assay; not shown: linker with 3C site and 6xHis, C-terminal, cleaved) EAHLTRDELRAKALHIPFPVEKIINLPVVDFNEMMSKEQFNEAQLALIRDIRRRGKNKVAAQNCRKRKLENIVELEQDLDHLKDEKEKLLKEKGENDKSLHLLKKQLSTLYLEVFSM | –
binds | – | BACH1^DBD with the uncleaved 6xHis linker (released by TEV from BACH1-TEV-sMafGχ^YbbR) (domain or fragment, The linker stays on this chain and gives the supershift; also called BACH1^DBD-6xHis-TEV; BACH1 of BACH1/sMafG^YbbR; source: cut from the chimera by TEV in the assay; not shown: linker with 6xHis (3C site removed, up to the TEV site), C-terminal, kept) not shown | –
– | binds | BACH1^DBD released by 3C from BACH1-sMafGχ (domain or fragment, also called BACH1 of BACH1/sMafG; source: E. coli One Shot BL21 Star (DE3), purified as the chimera (HisTrap, heparin, SEC); cut from the chimera by 3C and TEV in the assay; not shown: linker with 3C site and 6xHis, C-terminal, cleaved) not shown | –
